Results on 1 molecule are retold here after patent publication US20170312350A1 (published 2017).

The target in experiment [1] is T1, IGF2BP3 (IGF2BP3-001) peptide on HLA-A2 (human).
T1 peptide: KIQEILTQV
As to the kind of experiment: Target peptide titration on loaded target cells, IFN-gamma release; RNA-electroporated primary CD8+ T cells; full-length, on cells.

For experiment [2], the target named is T2, IGF2BP3-001 A2 (alanine-substitution variant of IGF2BP3-001) peptide on HLA-A*02, assumed (human).
T2 peptide: KAQEILTQV
Briefly: cytokine release.

Experiment [3] addresses T3, IGF2BP3-001 A9 (alanine-substitution variant of IGF2BP3-001) peptide on HLA-A*02, assumed (human).
T3 peptide: KIQEILTQA
Briefly: cytokine release.

The target in experiment [4] is T4, IGF2BP3-001 A8 (alanine-substitution variant of IGF2BP3-001) peptide on HLA-A*02, assumed (human).
T4 peptide: KIQEILTAV
As to the kind of experiment: cytokine release.

B1: TCR R10P1A7 (TCR, V domains shown)
Valpha: GEDVEQSLFLSVREGDSSVINCTYTDSSSTYLYWYKQEPGAGLQLLTYIFSNMDMKQDQRLTVLLNKKDKHLSLRIADTQTGDSAIYFCAESKETRLMFGDGTQLVVKP
Vbeta: GAVVSQHPSWVICKSGTSVKIECRSLDFQATTMFWYRQFPKQSLMLMATSNEGSKATYEQGVEKDKFLINHASLTLSTLTVTSAHPEDSSFYICSARAGGHEQFFGPGTRLTVL
Regarding B1, in experiment [1], the EC50 of peptide was ~1 nM. Also, the binding result in experiment [2], in experiment [3] and in experiment [4] was “recognises” each time.
